Like-named read-outs stand apart in the source and are kept apart here.
Legend:
[1] = target: Factor XIIa; test: enzyme inhibition kinetics; first preparation of bikunin (7-64)
[2] = target: Factor XIa; test: enzyme inhibition kinetics
[3] = target: Factor XIa; test: enzyme inhibition kinetics, E(OBz)AR-AMC substrate
[4] = target: bovine trypsin (bovine) (UniProt P00760)
[5] = target: bovine trypsin (bovine) (UniProt P00760); remark: listed apart in the source
[6] = target: bovine trypsin (bovine) (UniProt P00760); remark: listed apart in the source
[7] = target: Tissue Factor VIIa; test: enzyme inhibition kinetics; Sf9-derived bikunin (1-170)
[8] = target: bovine pancreatic kallikrein (bovine); test: as above
[9] = target: Factor XIa; test: as above
[10] = target: bovine trypsin (bovine) (UniProt P00760); remark: listed apart in the source
[11] = target: bovine trypsin (bovine) (UniProt P00760); remark: listed apart in the source
[12] = target: bovine pancreatic kallikrein (bovine); test: enzyme inhibition kinetics; first preparation of bikunin (7-64)
[13] = target: human neutrophil elastase (human, UniProt P08246); test: as above

Chain of bovine trypsin (bovine) (P00760 24-246): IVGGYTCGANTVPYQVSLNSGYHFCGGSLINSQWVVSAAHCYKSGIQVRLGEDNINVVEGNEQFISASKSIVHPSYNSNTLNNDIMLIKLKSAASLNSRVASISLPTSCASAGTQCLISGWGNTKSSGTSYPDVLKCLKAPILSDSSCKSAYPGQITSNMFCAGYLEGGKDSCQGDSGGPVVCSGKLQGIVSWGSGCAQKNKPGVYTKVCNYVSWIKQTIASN

## synthetic placental bikunin (7-64)
[1]
  Ki: > 300 nM

## synthetic placental bikunin (102-159)
[2]
  Ki: 15 nM
[3]
  Ki: 15 nM
[4]
  trypsin inhibitory activity, specific activity (U/mg) of the purified refolded peptide: 300000 U/mg

## recombinant placental bikunin (102-159) expressed in yeast SC101 (construct #1)
[5]
  inhibition of trypsin by yeast culture supernatant (applysate): 82%

B1: placental bikunin 101-159 expressed in yeast (construct #3) (protein)
chain: NYEEYCTANAVTGPCRASFPRWYFDVERNSCNNFIYGGCRGNKNSYRSEEACMLRCFRQ
[5]
  inhibition of trypsin by yeast culture supernatant (applysate): 25%

B2: native human placental bikunin isolated from human placenta (protein)
chain: ADRERSIHDFCLVSKVVGRCRASMPRWWYNVTDGSCQLFVYGGCDGNSNNYLTKEECLKKCATVTENATGDLATSRNAADSSVPSAPRRQDSEDHSSDMFNYEEYCTANAVTGPCRASFPRWYFDVERNSCNNFIYGGCRGNKNSYRSEEACMLRCFRQQENPPLPLGSK
modifications: probably glycosylated at the asparagine residue at position 30
[6]
  trypsin inhibitory activity (Units/OD 280) after Superdex 75: 24500 Units/OD 280

B3: recombinant placental bikunin (1-170) from baculovirus/Sf9 expression (protein)
chain: B2 chain
modifications: probably glycosylated at the asparagine residue at position 30
[7]
  Ki: 800 nM
[8]
  Ki: 0.12 nM
[9]
  Ki: 3 nM
[10]
  trypsin inhibitory activity, specific activity (U/OD) after C18 reverse-phase: 72200 U/OD

B4: placental bikunin 98-159 expressed in yeast (construct #4) (protein)
chain: DMFNYEEYCTANAVTGPCRASFPRWYFDVERNSCNNFIYGGCRGNKNSYRSEEACMLRCFRQ
[5]
  inhibition of trypsin by yeast culture supernatant (applysate): 93%

B5: synthetic placental bikunin (7-64) (other)
chain: IHDFCLVSKVVGRCRASMPRWWYNVTDGSCQLFVYGGCDGNSNNYLTKEECLKKCATV
[11]
  trypsin inhibitory activity, specific activity (U/mg) of the purified refolded peptide: 294000 U/mg
[12]
  Ki: 0.4 nM
[13]
  Ki: > 100 nM

From patent US6583108B1, “Human bikunin” (Bayer Corporation, dated 2003)
